The source of these data is patent publication US20140271651A1 (AbbVie / Abbott, published 2014).

For assay [1], the target named is T1, E. coli expressed human GP73 (amino acids 63 to 400) with C-terminal 6xHis tag (human, UniProt Q8NBJ4 64-401).
T1 construct: No human Fc, not glycosylated; also called GP73 produced in E. coli; E. coli GP73
T1 sequence: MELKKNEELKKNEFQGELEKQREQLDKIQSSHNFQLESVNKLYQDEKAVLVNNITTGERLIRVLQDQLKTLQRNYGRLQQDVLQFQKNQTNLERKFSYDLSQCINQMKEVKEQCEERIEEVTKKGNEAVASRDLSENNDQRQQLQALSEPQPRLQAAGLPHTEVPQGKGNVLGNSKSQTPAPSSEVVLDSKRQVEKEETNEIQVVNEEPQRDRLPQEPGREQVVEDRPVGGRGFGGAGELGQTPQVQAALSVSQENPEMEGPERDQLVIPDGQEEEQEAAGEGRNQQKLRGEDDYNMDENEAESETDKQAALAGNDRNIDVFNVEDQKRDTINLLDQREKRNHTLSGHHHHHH
Description: Binds E. coli GP73 (summary table; EIA on coated E. coli GP73). The protocol:
The purified anti-GP73 mAbs were tested for EIA reactivity to human IgG, GP73 produced in E. coli, and GP73-hFc produced in HEK 293 cells. A mouse-human chimeric antibody, GP73 produced in E. coli, and GP73-hFc produced in HEK 293 cells were coated on micro titer plates at approximately 1000 ng/mL and allowed to incubate over night at 4-8° C. After the capture reagent was coated on the solid phase, it was removed and blocked using a BSA/PBS block solution. The wells were washed with distilled water. Purified anti-GP73 and negative control mAbs were added to the blocked plates in serial dilutions starting at 1000 ng/mL and allowed to incubate at room temperature for approximately 30 min. The wells were washed with distilled water. Goat anti-mouse IgG-HRP (Jackson Immunoresearch) was added to the wells at approximately 250 ng/mL and allowed to incubate for approximately 30 min at room temperature. The plates were washed with distilled water and OPD substrate was used as the chromagen to generate signal. Plates were read at 492 nm and the results were analyzed.

For assay [2], the target named is T2, GP73-hFc (human GP73 amino acids 63 to 400 fused at the C-terminus to human IgG1 Fc) (human).
T2 construct: Expressed in HEK293F, CHO or HepG2 cells; the host is named under assay; also called HEK expressed GP73-hFc; CHO expressed GP73-hFc
T2 chain: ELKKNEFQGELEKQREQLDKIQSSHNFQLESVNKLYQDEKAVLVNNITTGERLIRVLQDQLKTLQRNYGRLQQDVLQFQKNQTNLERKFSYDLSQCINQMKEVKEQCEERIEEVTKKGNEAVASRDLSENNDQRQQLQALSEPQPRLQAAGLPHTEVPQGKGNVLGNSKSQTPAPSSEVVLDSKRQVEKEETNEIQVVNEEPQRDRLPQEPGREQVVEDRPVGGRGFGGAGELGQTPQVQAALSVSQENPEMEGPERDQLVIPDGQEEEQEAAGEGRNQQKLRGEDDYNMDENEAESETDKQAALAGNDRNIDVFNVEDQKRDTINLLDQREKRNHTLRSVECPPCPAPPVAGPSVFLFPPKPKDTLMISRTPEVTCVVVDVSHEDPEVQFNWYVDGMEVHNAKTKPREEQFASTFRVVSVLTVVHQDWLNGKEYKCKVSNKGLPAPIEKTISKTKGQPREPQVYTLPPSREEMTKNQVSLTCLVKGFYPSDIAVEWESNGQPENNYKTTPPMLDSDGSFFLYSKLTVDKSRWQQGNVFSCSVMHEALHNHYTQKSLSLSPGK
Description: sandwich EIA, rabbit anti-GP73 coated 1 ug/mL, GP73-hFc 200 ng/mL, supernatant 1:125, HRP goat anti-mouse IgG Fc. The protocol:
Cell supernatant samples were analyzed for anti-GP73 antibodies by EIA. Sheep anti-mouse IgG Fc (Jackson Immunoresearch) was coated on 96 well micro-titer EIA plates at 1 μg/mL. After the capture reagent was coated on the solid phase, it was removed and the plates were blocked using a BSA/PBS block solution. The wells were washed with distilled water and cell supernatants were added to the blocked plates and allowed to incubate at room temperature for at least one hour. A mouse monoclonal antibody 14H4-23 (Drexel University) was used a positive control. The anti-mouse IgG Fc captured the anti-GP73 mouse antibody from the supernatant. Following the incubation, the supernatants were washed off using distilled water. An irrelevant mouse-human chimeric antibody was added to all wells and incubated at room temperature for 30 min to block any captured mouse antibodies that react with the human IgG Fc fusion protein linked to the GP73 antigen. The wells were washed with distilled water and GP73-hFc was added to the plates at 200 ng/mL and incubated for 30 min. Following this incubation, the antigen was washed from the plates using distilled water. Biotin labeled goat anti-GP73 was added to the plates at 200 ng/mL and incubated for 30 min at room temperature. The plates were washed and streptavidin-HRPO (Jackson Immunoresearch) (diluted to approximately 200 ng/mL) was added to the plates and allowed to incubate for 30 min. The plates were washed with distilled water and OPD substrate was used as the chromagen to generate signal. Plates were read at 492 nm and the results were analyzed.
The 24 well cultures were then evaluated by EIA for their ability to form a sandwich with the rabbit anti-GP73 used as a capture reagent coated directly on the solid phase. The same EIA protocol previously described was used, except rabbit anti-GP73 antibody was coated at 1 μg/mL, the GP73-hFc was tested at 200 ng/mL, and a HRP labeled goat anti-mouse IgG FC antibody was used as the conjugate reagent to generate signal.

The target of assay [3] is T1, E. coli expressed human GP73 (amino …). Description: Western blot on E. coli expressed GP73 antigen. The protocol:
The mammalian cell (HEK and CHO) expressed GP73-hFc or E. coli expressed GP73, as described above, were electrophoresed in a 4-20% SDS-PAGE gel. […] The nitrocellulose membrane was blocked with PBS buffer containing 5% non-fat dry milk and 0.05% Tween 20 for about 1 hr. The nitrocellulose membrane was incubated with an appropriate amount of anti-GP73 monoclonal antibody in 10 mL of 2.5% non-fat dry milk and 0.05% Tween 20 PBS buffer, pH 7.2. The nitrocellulose membranes were washed with 0.05% Tween 20/PBS, pH 7.2, incubated with goat anti-mouse IgG antibody conjugated with HRP for 1 hr at room temperature, and washed with 0.05% Tween 20/PBS buffer. Antibody bound to the GP73 protein was visualized by the addition of freshly prepared metal enhanced 3,3′-Diaminobenzidine in stable peroxide buffer (Pierce, Ill.).

B1: anti-GP73 monoclonal antibody 1B-4971 (antibody, V domains shown)
VH: QVQLQQSGPALVKPGASVKMSCKASGYTFTNYVIHWVKQKPGQGLERIGYIWPYNDGTKFNEKFKGKATLTSDKSSSTAYMELSSLTSEDSAVYYCSSQQLAYWGQGTTLTVSS
VL: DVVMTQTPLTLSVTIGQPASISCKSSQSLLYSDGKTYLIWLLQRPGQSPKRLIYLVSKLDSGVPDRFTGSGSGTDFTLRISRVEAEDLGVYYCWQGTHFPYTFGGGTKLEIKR
notes: Biotin labelled in some assays; also called mAb 1B-4971; 1B-4971-Bt
As for B1, the binding result in assay [1] is reported as “binds”. The “GP73-hFc OD (A492)” value in assay [2] was 1.6 OD (A492).

B2: anti-GP73 monoclonal antibody 1B-3440 (antibody, V domains shown)
VH: EVQLVETGGGLVQPKGSLKLSCAASGFTFNTNAMNWVRQAPGKGLEWVARIRTKRYNYTTFYADSVKDRFTISRDDSQSMLFLQMNNLKTEDTAMYYCVTGGTGTFDYWGQGTTLTVSS
VL: EIVLTQSPTTMPASPGEKVTFTCSASSGISSNYLHWYQLKPGFSPKLLIYRTSNLASGVPARFSGGGSGTSYSLTIGTMEAEDVATYYCQQGFSIPLTFGAGTKLELKR
notes: Biotin labelled in some assays; also called mAb 1B-3440; 1B-3440-Bt
As for B2, in assay [1], the binding result is “binds”. For the same molecule, the “GP73-hFc OD (A492)” value in assay [2] was 0.76 OD (A492).

B3: anti-GP73 monoclonal antibody 1B-4863 (antibody, V domains shown)
VH: QVQLKESGPGLVAPSQSLSITCTVSGFSLTSYGVHWVRQSPGKGLEWLGVIWTGGSTNYNSALMSRLSISKDNSESQVFLKVNSLQTDDTGMYYCARDPGTDYFDYWGQGTTLTVSS
VL: DIVMTQSHKFMSTSIGDRVSISCKASQDVSIDVSWYQQKPGQSPTLLIYSASYRYIGVPDRFTGSGSGTAFTFTISSVQAEDLAIYYCQQHFTTPLTFGAGTKLELKR
notes: Biotin labelled in some assays; also called mAb 1B-4863; 1B-4863-Bt
Consider B3, for which, in assay [3], the binding result is on record as “binds”. Moreover, the “GP73-hFc OD (A492)” value in assay [2] is 1.41 OD (A492).
